Source: doi:10.1101/2022.04.19.488791 (bioRxiv, 2022)
Like-named read-outs stand apart in the source and are kept apart here. Blank lines part the entries; values can stand above or below the binder they belong to.

Tests used:
Assay in all cases: cryo-EM structure
[1] = biological target: T1, Slh1 helicase subunit of the ribosome quality control trigger complex RQT (wild type) (yeast, UniProt P53327 1-1967)
[2] = biological target: T1, Slh1 helicase subunit of the ribosome …; remark: listed apart in the source
[3] = biological target: Slh1-K316R, ATPase-deficient Slh1 subunit of K316R-RQT (yeast, UniProt P53327 1-1967, K316R)
Chain of Slh1-K316R, ATPase-deficient Slh1 subunit of K316R-RQT (P53327 whole entry K316R): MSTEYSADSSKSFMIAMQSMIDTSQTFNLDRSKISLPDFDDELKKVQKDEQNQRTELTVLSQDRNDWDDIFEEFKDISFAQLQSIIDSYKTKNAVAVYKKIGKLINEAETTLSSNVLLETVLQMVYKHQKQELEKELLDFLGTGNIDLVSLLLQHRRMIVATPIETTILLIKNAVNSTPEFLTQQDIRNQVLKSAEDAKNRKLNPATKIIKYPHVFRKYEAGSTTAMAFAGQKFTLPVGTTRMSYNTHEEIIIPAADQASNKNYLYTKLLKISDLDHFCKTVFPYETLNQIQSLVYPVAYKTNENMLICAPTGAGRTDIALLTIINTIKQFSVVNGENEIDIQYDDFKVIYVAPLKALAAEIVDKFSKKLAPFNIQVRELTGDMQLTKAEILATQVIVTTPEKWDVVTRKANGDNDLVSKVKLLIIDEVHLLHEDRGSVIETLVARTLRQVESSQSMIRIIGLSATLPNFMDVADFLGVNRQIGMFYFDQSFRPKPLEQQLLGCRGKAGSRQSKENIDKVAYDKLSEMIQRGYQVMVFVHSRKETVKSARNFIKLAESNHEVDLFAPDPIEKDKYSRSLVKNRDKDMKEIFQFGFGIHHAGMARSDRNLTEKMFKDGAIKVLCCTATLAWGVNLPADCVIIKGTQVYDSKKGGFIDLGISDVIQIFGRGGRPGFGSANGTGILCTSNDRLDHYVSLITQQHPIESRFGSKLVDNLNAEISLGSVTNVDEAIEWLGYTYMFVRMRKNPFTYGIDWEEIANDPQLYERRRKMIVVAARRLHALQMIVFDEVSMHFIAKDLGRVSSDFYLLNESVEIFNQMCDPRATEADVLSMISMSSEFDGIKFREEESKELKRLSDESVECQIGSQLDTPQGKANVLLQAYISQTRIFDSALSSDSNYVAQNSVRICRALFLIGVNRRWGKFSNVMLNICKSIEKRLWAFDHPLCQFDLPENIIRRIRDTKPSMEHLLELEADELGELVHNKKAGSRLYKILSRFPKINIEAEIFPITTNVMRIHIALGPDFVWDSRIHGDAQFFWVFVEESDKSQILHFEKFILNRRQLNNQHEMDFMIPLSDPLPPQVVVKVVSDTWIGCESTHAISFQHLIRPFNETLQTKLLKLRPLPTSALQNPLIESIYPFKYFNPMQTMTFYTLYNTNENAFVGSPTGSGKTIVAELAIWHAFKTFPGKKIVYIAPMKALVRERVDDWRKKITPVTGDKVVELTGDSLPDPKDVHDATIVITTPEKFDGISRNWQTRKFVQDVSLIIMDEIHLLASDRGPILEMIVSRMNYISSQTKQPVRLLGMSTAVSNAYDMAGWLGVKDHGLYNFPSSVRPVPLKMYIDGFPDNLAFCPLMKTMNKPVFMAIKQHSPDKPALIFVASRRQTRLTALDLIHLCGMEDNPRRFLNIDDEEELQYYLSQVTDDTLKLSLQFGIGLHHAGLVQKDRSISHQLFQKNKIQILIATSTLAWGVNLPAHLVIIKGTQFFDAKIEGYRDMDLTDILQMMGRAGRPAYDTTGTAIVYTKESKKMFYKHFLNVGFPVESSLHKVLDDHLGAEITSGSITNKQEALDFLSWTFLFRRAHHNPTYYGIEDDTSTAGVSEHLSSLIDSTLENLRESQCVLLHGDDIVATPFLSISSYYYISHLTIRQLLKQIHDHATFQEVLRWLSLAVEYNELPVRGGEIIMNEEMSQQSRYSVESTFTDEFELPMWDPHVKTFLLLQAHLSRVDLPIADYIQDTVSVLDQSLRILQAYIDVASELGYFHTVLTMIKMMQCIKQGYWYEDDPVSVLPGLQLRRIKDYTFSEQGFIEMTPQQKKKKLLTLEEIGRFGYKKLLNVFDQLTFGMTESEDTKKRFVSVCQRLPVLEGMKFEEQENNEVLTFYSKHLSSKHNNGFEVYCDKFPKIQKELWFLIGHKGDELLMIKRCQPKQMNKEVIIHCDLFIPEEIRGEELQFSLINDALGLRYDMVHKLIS

T1 sequence (P53327 whole entry, one chain of several): as the sequence (P53327 whole entry K316R) above, with R316K counted along it

binding result [1]: binds
B1: RACK1 (Asc1) of the 40S head (natural protein, UniProt P38011 1-319, looked up)
chain: MASNEVLVLRGTLEGHNGWVTSLATSAGQPNLLLSASRDKTLISWKLTGDDQKFGVPVRSFKGHSHIVQDCTLTADGAYALSASWDKTLRLWDVATGETYQRFVGHKSDVMSVDIDKKASMIISGSRDKTIKVWTIKGQCLATLLGHNDWVSQVRVVPNEKADDDSVTIISAGNDKMVKAWNLNQFQIEADFIGHNSNINTLTASPDGTLIASAGKDGEIMLWNLAAKKAMYTLSAQDEVFSLAFSPNRYWLAAATATGIKVFSLDPQYLVDDLRPEFAGYSKAAEPHAVSLAWSADGQTLFAGYTDNVIRVWQVMTAN

binding result [1]: binds
B2: ribosomal protein uS3 of the 40S subunit (natural protein, UniProt P05750 1-240, looked up)
chain: MVALISKKRKLVADGVFYAELNEFFTRELAEEGYSGVEVRVTPTKTEVIIRATRTQDVLGENGRRINELTLLVQKRFKYAPGTIVLYAERVQDRGLSAVAQAESMKFKLLNGLAIRRAAYGVVRYVMESGAKGCEVVVSGKLRAARAKAMKFADGFLIHSGQPVNDFIDTATRHVLMRQGVLGIKVKIMRDPAKSRTGPKALPDAVTIIEPKEEEPILAPSVKDYRPAEETEAQAEPVEA

binding result [2]: binds | binding result [3]: binds
B3: Cue3, ubiquitin-binding CUE domain containing subunit of RQT (natural protein, yeast, UniProt P53137 1-624, looked up)
chain: MLSRYNRVIEINGGNADISLPIVKFPPFKLRAQLIEKDPVVWLHLIETYVTYFEYLMQGANVELLDESTLDHLRLFLRTYLHEIADEEGKLLSLGINHDVSEQLYLLKGWIFSLIKKCGLLHLQIFGDSLWNLIKVYVRRNPDSIRGLIDGSLKPRINTQRVQLDKSYQVQQHLKQLIESGKFKRIDLRCVEDLLSAKSMQPNKFAENFFTANWIEILEALWAKGQGRGHKEARELIIISLFSVSADRLLKITKELGISNFETLALYPLLGTMLINEGVHKRLPDLKSKLLFLNLGGLSMDEGDHMSYPTSSGTEVNEEQLSALMELFPQFSKYQLSQTLLAYDNNIELVTNKIFEDPTIIEAFSREPAEEEVEPVSDGDNASFTEELSILDRGDSSKNKELDKKIISEGVPDELRNKTLTRALKLLYEADEDERDDTYDEADVNRSDPSKRIGLQEDEESYDTKDDSNEVRQDHNYHIVEAYLWNLLKEDPKLFERSKRGTKVRKTMKEMTSWSDEKIEGWCRMLERSPTRARLLEKKFMFKGNSKTGKTSYVHNRDSQNDGNVVKEQAKQKKSENIKKHEPQSTEQKKRQHAKNEKRKGARANHNRKKGHDKKLARAGNNAI

binding result [2]: binds | binding result [3]: binds
B4: Rqt4, zinc-finger containing subunit of RQT (natural protein, yeast, UniProt P36119 1-530, looked up)
chain: MTRKQAIDYAIKQVPQILPLEESDVKALCEQVLSTSSDDPEQIASKFLEFLGHEDLSFEFVMKFNELLNQNDKKEEKKTKNVHLEHTAPTSWKNESKQPTNNYINKKGDEKPKKLKDEKKSSTTRPTVQPSNQSTQSNPIKEKKEHRSKGKLQSLQEIDEAIKMLELRDSGSSKNCNCQGTRHPVFDIAPNCLHCGKVVCVIEGLNKGKCGHCHEQLISDNERTQMVEILNQEKNELNGSSSSLSNASNGANVPKKKTKTYKITSGMGKNLFAEQDKLFDFIERKRERERKRNEVLKLQEEKEESEAKERQASEHDHKAEENPELLAAQERLDRLLYFQDTSAERTKIIDNASDFDMNQEVGLWGSARERALALKKQQRNLRKWEKVEKERNGRREKYVVSMNIGSNGKVTMTEVPKDTENVIAGSDDDISDISDEEDISDLKHIHALKSEINTTKSLENLHLQSKAWDYERDKKQFDRPTYVKKNSDTAQQNRKTEEKAHDMQAYDLKSRVQVDQNADASVEQNILAVL

binding result [1]: binds
B5: ribosomal protein uS5 of the 40S subunit (natural protein, UniProt P25443 1-254, looked up)
chain: MSAPEAQQQKRGGFGGRNRGRPNRRGPRNTEEKGWVPVTKLGRLVKAGKITTIEEIFLHSLPVKEFQIIDTLLPGLQDEVMNIKPVQKQTRAGQRTRFKAVVVVGDSNGHVGLGIKTAKEVAGAIRAGIIIAKLSVIPIRRGYWGTNLGQPHSLATKTTGKCGSVTVRLIPAPRGSGIVASPAVKKLLQLAGVEDVYTQSNGKTRTLENTLKAAFVAIGNTYGFLTPNLWAEQPLPVSPLDIYSDEASAQKKRF
